Reference: the supplement of paper PMC7125110
± gives the standard error. Variants at the floor of the assay were thinned out.

B1: glmS ribozyme (parent)
chain: AUAAAAGCGCCAGAACUACAGAAAUGUAGUUGACGAGGAGGAGGUUUAUCGAAUUUUCGGCGGAUGCCUCCAAA

What was measured:
Details in all cases: with glucosamine-6-phosphate
glucosamine-6-phosphate [1] = variants of: B1; assay: self-cleavage kobs at 640 uM GlcN6P; higher = faster cleavage; RNA array
Summary of the method: (§1)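 Ribozyme variants carrying barcodes were transcribed in situ on sequenced MiSeq chips by E. coli RNA polymerase and tracked at 37 °C with a hybridised Cy3 probe. They were exposed to 40 μM to 10 mM glucosamine-6-phosphate in HEPES/KCl/Mg(OAc)2 buffer. kobs came from exponential decay fits of normalised per-tile medians, and kcat and KM from weighted Michaelis–Menten fits.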

glucosamine-6-phosphate [2] = variants of: B1; assay: self-cleavage kobs at 2500 uM GlcN6P; higher = faster cleavage; RNA array
Summary of the method: as §1

glucosamine-6-phosphate [3] = variants of: B1; assay: self-cleavage kobs at 10000 uM GlcN6P; higher = faster cleavage; RNA array
Summary of the method: as §1

Variant	self-cleavage kobs at 640 uM GlcN6P (glucosamine-6-phosphate [1]) [s⁻¹]	self-cleavage kobs at 2500 uM GlcN6P (glucosamine-6-phosphate [2]) [s⁻¹]	self-cleavage kobs at 10000 uM GlcN6P (glucosamine-6-phosphate [3]) [s⁻¹]
G43A A53G G60U	< 1e-05	< 1e-05	–
C8U A14G A39G A53U U54G G63A	< 1e-05	< 1e-05	–
C8G C11U A15U G29C G41U	< 1e-05	–	< 1e-05
U30A C70G C71U	5.91e-05 ± 2.5e-05	8.51e-05 ± 2.9e-05	–
G38U G43U U46A A48U C61A C67G	< 1e-05	–	–
C10A C61G C67G C71G	0.000346 ± 8.8e-05	0.000167 ± 8.1e-05	–
A6C A33G U46C C61G	< 1e-05	< 1e-05	–
C50G A52U	< 1e-05	–	< 1e-05
G9A G40C G44A G59U	< 1e-05	–	–
U30C C67A C70G	6.32e-05 ± 1.4e-05	–	–
G40U G44U C68U	< 1e-05	–	–
G44C C58G C61G	< 1e-05	–	–
C16A U56G C58G G62C	< 1e-05	–	–
C11A U46G C61G	< 1e-05	< 1e-05	–
U46A U54G C70A	5.86e-05 ± 2.1e-05	0.000289 ± 7.5e-05	–
G32U U55G C71U	0.00014 ± 3.5e-05	–	0.000518 ± 0.00011
A33C U45C U47A A48G	< 1e-05	–	–
G9U G35C A42U U45A C70A	< 1e-05	–	–
C8G G13U U55C C58U	< 1e-05	< 1e-05	–
A33C A53G	3.89e-05 ± 1.4e-05	7.39e-05 ± 1.3e-05	0.000235 ± 3.8e-05
A6G A14U C16G U56A	< 1e-05	–	–
G7A U31C A52G	< 1e-05	–	–

Variant	self-cleavage kobs at 640 uM GlcN6P (glucosamine-6-phosphate [1]) [s⁻¹]	self-cleavage kobs at 2500 uM GlcN6P (glucosamine-6-phosphate [2]) [s⁻¹]	self-cleavage kobs at 10000 uM GlcN6P (glucosamine-6-phosphate [3]) [s⁻¹]
A36G A42C U57C G59U	< 1e-05	< 1e-05	–
G29U U45G U65C	< 1e-05	< 1e-05	–
U30G A42U C50A G60U	< 1e-05	–	–
A39U A42C C50G	< 1e-05	–	< 1e-05
C11A G37C U65G	< 1e-05	–	–
G9C A53U C70A	< 1e-05	–	–
A42C A53U U56G	< 1e-05	–	–
G38U G43U U65C C68G C71G	< 1e-05	–	–
G37C G40C U49A	< 1e-05	< 1e-05	–
C16G G63U	< 1e-05	< 1e-05	< 1e-05
C10A A15G G32U C70G	0.000197 ± 7.6e-05	–	–
A39G G44A C58A	< 1e-05	–	–
C11G C70G	9.08e-05 ± 1.6e-05	5.33e-05 ± 1.4e-05	2.25e-05 ± 9.6e-06
G35C A52U C67U C68A	< 1e-05	–	–
C16U A33U U49A	< 1e-05	< 1e-05	–
G9C G29A G41A	< 1e-05	< 1e-05	–
C8U U30A U31C A48U C68U	< 1e-05	< 1e-05	–
A14U C50G G62A	0.000193 ± 8.2e-05	–	–
G7A C8A G9A G62A	< 1e-05	–	< 1e-05
G9U G51U C71U	< 1e-05	–	–
A6U G38U A39C U55A	< 1e-05	< 1e-05	–
A39U G43C G44A G51U	< 1e-05	< 1e-05	–

Variant	self-cleavage kobs at 640 uM GlcN6P (glucosamine-6-phosphate [1]) [s⁻¹]	self-cleavage kobs at 2500 uM GlcN6P (glucosamine-6-phosphate [2]) [s⁻¹]	self-cleavage kobs at 10000 uM GlcN6P (glucosamine-6-phosphate [3]) [s⁻¹]
C16U A39G A42U U47A	5.33e-05 ± 2.6e-05	0.000115 ± 1.9e-05	–
A6G C61G C71G	7.45e-05 ± 2.4e-05	–	–
C10U G60A C67A	< 1e-05	–	–
U45G U49C	< 1e-05	–	< 1e-05
A12C G35A C70U	< 1e-05	< 1e-05	–
A39C G43A G66A	< 1e-05	–	–
G13C A14G U56C	6.74e-05 ± 1.6e-05	0.000185 ± 4.6e-05	–
A33C G35C U49G G59C	< 1e-05	< 1e-05	–
G37U U65A G66C	< 1e-05	–	–
G38A G44U C50A	< 1e-05	–	–
G29A G38A U65G	< 1e-05	< 1e-05	–
A36G G51C C71G	< 1e-05	< 1e-05	–
A14C A36C G51U C61A G63U C67U	8.43e-05 ± 3.9e-05	5.16e-05 ± 1.9e-05	–
U30A G37A U56A	5.62e-05 ± 1.7e-05	–	–
C10U U49A U55A	< 1e-05	–	–
G32A U54A C68A	0.000374 ± 0.00012	0.000108 ± 4.1e-05	–
C34G G51A C67U	< 1e-05	–	–
A6C A12C A39C C67U	< 1e-05	< 1e-05	< 1e-05
G9C G43U U55G A64G	< 1e-05	< 1e-05	–
G9C A64U	< 1e-05	–	–
G9U U56A G63U A64U	< 1e-05	–	–
